# Laboratory results: patent US6861578B1, “Method for plant protection against insects or nematodes by transformation with a nucleic acid encoding equistatin” (Plant Research International B.V., priority 1997, dated 2005)
# B1: equistatin: cysteine/aspartic protease inhibitor from sea anemone Actinia equina with three type I repeated thyroglobulin domains; purified or recombinant from E. coli (protein)
# chain: SLTKCQQLQASANSGLIGTYVPQCKETGEFEEKQCWGSTGYCWCVDEDGKEILGTKIRGSPDCSRRKAALTLCQMMQAIIVNVPGWCGPPSCKADGSFDEVQCCASNGECYCVDKKGKELEGTRQQGRPTCERHLSECEEARIKAHSNSLRVEMFVPECLEDGSYNPVQCWPSTGYCWCVDEGGVKVPGSDVRFKRPTC
# modifications: left off: large carriers; small tags and cut ends
# notes: purified or recombinant from E. coli
# What was measured:
# [1] = molecular target: cathepsin D (Homo sapiens, UniProt P07339); experiment: Incubation of equistatin with cathepsin D, reverse-phase HPLC (substrate test); format: biochemical; details: incubated in different molar concentrations and times
# Experimental: In panel A the equistatin was incubated with cathepsin D in a final molar concentration of 2:1, and in panel B the equistatin was fragmented using 1% (w/w) β-trypsin. Identities of peaks were based on the N-terminal sequences.
# Equistatin was isolated from sea anemone A. equina by a procedure that was described previously utilizing its inhibitory activity toward cysteine proteinase, papain (Lenarcic et al. (1997) J. Biol. Chem. 272: 13899). Besides cysteine proteinases, equistatin was screened for the inhibition of two other classes of proteinases, aspartic proteinases (cathepsin D) and serine proteinase (trypsin). […] 500 μg equistatin was incubated with 5 μg of β-trypsin in 0.5 ml of 0.1 M Tris/HCl buffer pH 8.0, for 40 min at 37° C. Reaction was stopped by the addition of trifluoroacetic acid. The 9-trypsin digest of equistatin was separated by high performance liquid chromatography (Milton Roy Co.) using a reverse phase Vydac C18 column equilibrated with 5% acetonicril containing 0.1% (v/v) trifluoroacetic acid. Elution was performed using a linear gradient of 80% (v/v) acetonitrile containing 0.1% (v/v) trifluoroacetic acid. Absorbance was monitored at 215 nm. Two major peaks were obtained on the reverse-phase. HPLC (FIG. 9B). The molecular weights, estimated by the SDS PAGE under non-reducing conditions, were about 7,000 and 14,000 (FIG. 10). […]
# [2] = system: amino-peptidase activity of Colorado potato beetle larval gut extracts; experiment: Amino-peptidase activity of Colorado potato beetle gut extract, L-Arg-pNA; format: biochemical, Leptinotarsa decemlineata
# Source text: (§1) Guts of final instar Colorado potato beetle larvae reared on methyl jasmonate induced plants were isolated and extracted essentially as described (Bolter and Jongsma, J. Insect Physiol. 41: 1071-1078). In these gut extracts the proteases that are sensitive to the protease inhibitors of potato are already complexed. The residual protease activity is composed of potato protease-inhibitor-insensitive proteases which were induced in response to the methyl jasmonate induced potato inhibitors. These proteases are the proteases that render the beetle larvae insensitive to protease inhibitor defense of the potato plant. Wle tested a broad range of different cysteisie protease inhibitors for activity specifically against these induced potato protease inhibitor-insensitive cysteine protesses. Nearly all of these inhibitors were purified at the Jozef Stefan Institute in Slovenia. Testing their potential against Colorado potato beetle was done using both general protein substrates (azocasein, table 2) as well as specific synthetic substrates (L-Arg-pNA, table 3; pGlu-Phe-Leu-pNA, table 4; Z-Phe-Arg-pNA, table 5; Z-Arg-Arg-pNA, table 6). In specific cases inhibitors were tested at two concentrations, eauimolar and in excess to the protease, in order to obtain an indication of the tightness of the complex. […] Importantly, this class of inhibitors was capable of inhibiting nearly all general cysteine protease activity. The equistatin peptide molecule and a functional derivative thereof were not very active against the aminopeptidase-like cysteine protease activity. […] The best combination of inhibitors for full toxicity against the Colorado potato beetle would therefore be a combination of equistatin or p41 invariant chain fragment and stefin-like inhibitors.
# [3] = system: tri-peptidil-peptidase and endoprotease activity of Colorado potato beetle larval gut extracts; experiment: Tri-peptidil-peptidase and endoprotease activity of Colorado potato beetle gut extract, pGlu-Phe-Leu-pNA; format: biochemical, Leptinotarsa decemlineata
# Source text: as §1
# [4] = system: endoprotease activity of Colorado potato beetle larval gut extracts; experiment: Narrow spectrum endoprotease activity of Colorado potato beetle gut extract, Z-Arg-Arg-pNA; format: biochemical, Leptinotarsa decemlineata
# Source text: as §1
# [5] = system: Colorado potato beetle larvae; experiment: Toxicity of equistatin painted on potato leaves towards Colorado potato beetle larvae; format: in vivo, Leptinotarsa decemlineata
# Experimental: Potato tubers of cultivar Surprise (Solanum tuberosum) were sprouted. Sprouted tubers were planted in 1 l pots and grown for 3-4 weeks at a 22/18° C., 16/8 hr day night rhythm. Plants 10-15 cm high were placed in glass jars together with a paper wick on which 2 ul methyl jasmonate was pipeted. Jars were sealed immediately with parafilm and placed in a climate chamber of 30° C. with continuous light. Control plants were placed in a chamber of 25° C. with a 16-8 hr day night rhythm. After one day at 30° C. plants were taken from the jars and placed in the same chamber as the control. Plants were used on day 3. Freshly treated plants were used for each subsequent day of feeding. […] The top meristems were removed from the plants and painted on both sides with a 175 μM solution of recombinant equistatin in 0.3% agar obtained by mixing 1:1 a stock solution of 350 μM equistatin with 0.6% water agar. Controls were painted with 0.3% water agar. The agar solution was applied at a concentration of 30 μl/cm2.
# The final concentration on the leaf was estimated to be 70 μM which is equivalent to 1.4 mg/g leaf. Painted leaves were placed in a tube containing 0.4% agar and out on top of a filterpaper inside a petridish. 21-26 newly hatched Colorado potato beetle larvae were placed on the leaves and the petridish was put in an incubator set at 28° C. Everyday fresh painted leaves replaced the old ones.
# [6] = recombinant equistatin on MeJa treated plants
# [7] = recombinant equistatin on control plants
# [8] = recombinant equistatin on methyl jasmonate (MeJa) treated plants
# Sequence of cathepsin D (P07339 65-412, species assumed): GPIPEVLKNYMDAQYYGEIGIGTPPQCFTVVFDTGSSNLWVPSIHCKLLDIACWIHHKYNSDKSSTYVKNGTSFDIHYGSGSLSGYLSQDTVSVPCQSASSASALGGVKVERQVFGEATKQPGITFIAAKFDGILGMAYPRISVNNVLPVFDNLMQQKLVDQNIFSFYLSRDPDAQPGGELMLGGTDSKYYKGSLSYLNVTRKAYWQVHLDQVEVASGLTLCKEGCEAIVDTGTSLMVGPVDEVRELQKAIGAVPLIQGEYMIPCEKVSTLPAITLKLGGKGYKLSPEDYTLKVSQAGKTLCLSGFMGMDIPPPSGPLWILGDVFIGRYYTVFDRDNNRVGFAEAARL
molecule,measurement,setting,value
B1,degradation of equistatin by cathepsin D,[1],No degradation products were observed
same,"% of residual activity, equimolar",[2]; equimolar,85%
same,"% of residual activity, excess inhibitor",[2]; excess inhibitor,75%
same,"% of residual activity, equimolar",[3]; equimolar,10%
same,"% of residual activity, excess inhibitor",[3]; excess inhibitor,−5%
same,"% of residual activity, equimolar",[4]; equimolar,20%
same,"% of residual activity, excess inhibitor",[4]; excess inhibitor,−5%
same,"percent mortality, day 1",[5]; [6],0%
same,"percent mortality, day 2",[5]; [6],23%
same,"percent mortality, day 3",[5]; [6],77%
same,"percent mortality, day 4",[5]; [6],92%
same,"percent mortality, day 1",[5]; [7],0%
same,"percent mortality, day 2",[5]; [7],10%
same,"Larval weight, day 3",[5]; [7],0.5 mg/larvae
same,"percent mortality, day 3",[5]; [7],52%
same,"Larval weight, day 4",[5]; [7],0.7 mg/larvae
same,"percent mortality, day 4",[5]; [7],76%
same,"Larval weight, day 3",[5]; [8],n.g.
same,"Larval weight, day 4",[5]; [8],n.g.
